Measurements from paper PMC11844185 (Journal of Translational Medicine, 2025).

What was measured:
[1] = biological target: T1, SARS-CoV-2 prototype RBD-His tag protein (Severe acute respiratory syndrome …, UniProt P0DTC2); test: SPR
[2] = biological target: T1, SARS-CoV-2 prototype RBD-His tag protein; test: cell-based or functional assay

B1: SWA9 (antibody, V domains shown)
VH: QMQLVQSGPEVKKPGTSVKVSCKASGFTFTNSAMQWVRQARGQRLEWVGWIVVASGNANSARRFHDRVTITSDMSTSTAYLELSSLRSEDTAVYYCALNHCSNTTCLDGFDIWGQGTMVSVSS
VL: EIVLTQSPVTLSLSPGERATLSCRASQSVRNSLLAWYQQKPGQAPRLLIYAASSRATGIPDRFSGSGSGTDFTLTISRLEPEDFVVYYCQQHGSSPPWTFGQGTKVEFK
Kd [1]: 345 pM | neutralisation of SARS-CoV-2 prototype pseudovirus, IC50 [2]: < 0.1 µg/mL

B2: SWC11 (antibody, V domains shown)
VH: EVQLVESGGGLIQPGGSLRLSCAASEFIVSRNYMSWVRQAPGTGLEWVSVIYPGGSTFYADSVKGRFTISRDNSKNTLYLQMDSLRVEDTAVYYCARDYGDFYFDYWGQGTLVTVSS
VL: EIVMTQSPVSLSVSPGERATLSCRASQGVASNLAWYQQKAGQAPRLLIYGASTRATGIPARFSGSGSGTEFTLTISTLQSEDSAVYYCQQYNDRPRTFGQGTKLEIK
Kd [1]: 627 pM | neutralisation of SARS-CoV-2 prototype pseudovirus, IC50 [2]: < 0.1 µg/mL

B3: 2YYQH9 (antibody, V domains shown)
VH: EVQLVESGGGLIQPGGSLRLSCAASGVTVIRNYMTWVRQAPGKGLEWVSVIYPGGTTYYADSVKGRFTISRDSSKNTLYLQMNSLRAEDAAVYFCARAYGDYYFDLWGQGTLLTVSS
VL: EMVMTQSPASLSLSPGERATLSCRASQGVDSSYLAWYQQKPGQAPRLLMYGASSRATGIPDRFSGSGYGTDFTLTISRVEPEDFAVYYCQVAFTFGQGTKVEIK
Kd [1]: 428 pM | neutralisation of SARS-CoV-2 prototype pseudovirus, IC50 [2]: < 0.1 µg/mL
